Measured values from patent US20190105378.

Target: FLAG-TEV recognition sequence-granzyme B AA21-240 fusion whose recognition site (SEQ ID NO: 6) has a G instead of Q, P10144
Sequence (P10144 whole entry, looked up, the tested form may be a part): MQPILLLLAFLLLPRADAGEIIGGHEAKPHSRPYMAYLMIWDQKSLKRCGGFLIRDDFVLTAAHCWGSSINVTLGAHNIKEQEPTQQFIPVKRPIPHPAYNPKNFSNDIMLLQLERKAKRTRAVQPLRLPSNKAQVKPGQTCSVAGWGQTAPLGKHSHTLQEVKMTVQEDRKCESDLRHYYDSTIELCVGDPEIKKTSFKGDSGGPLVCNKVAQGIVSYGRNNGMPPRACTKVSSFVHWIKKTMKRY

B1: tobacco etch virus protease with N-terminal FLAG sequence (product of plasmid pSTdna 1023) (protein)
chain: MDYKDDDDKGDYKDDDDKGGGTGESLFKGPRDYNPISSTICHLTNESDGHTTSLYGIGFGPFIITNKHLFRRNNGTLLVQSLHGVFKVKNTTTLQQHLIDGRDMIIIRMPKDFPPFPQKLKFREPQREERICLVTTNFQTKSMSSMVSDTSCTFPSSDGIFWKHWIQTKDGQCGSPLVSTRDGFIVGIHSASNFTNTNNYFTSVPKNFMELLTNQEAQQWVSGWRLNADSVLWGGHKVFMSKPEEPFQPVKEATQLMNELVYSQ
cleavage by TEV: no cleavage by TEV takes place (not shown)
